# From PMC9207808 (ACS Chemical Biology, 2022)
# Values joined by “and” are separate entries in the source; they are usually repeats but may differ in a detail not shown here. Equal values may be shown once. Read-outs that look alike come from different tables or passages of the source. No end group written: not given here.
# Tests used:
# [1] = biological target: Doc1-122–His6 (DocSTm toxin) (Salmonella typhimurium); assay: SPR; Biacore S200; Doc-His6 captured on a Series S NTA chip (200-400 RU); peptide as analyte, single-cycle kinetics, six concentrations (3-fold dilutions), 30 uL/min; 22 C; 10 mM HEPES, 500 mM NaCl, 50 uM EDTA, 0.005% TWEEN 20, pH 8.0; kinetic 1:1 fit
# [2] = biological target: Doc1-122–His6 (DocSTm toxin) (Salmonella typhimurium); assay: as above; remark: listed apart in the source
# [3] = biological target: Doc1-122–His6 (DocSTm toxin) (Salmonella typhimurium); assay: as above; remark: listed apart in the source
# [4] = biological target: Doc1-122–His6 (DocSTm toxin) (Salmonella typhimurium); assay: as above; remark: listed apart in the source
# [5] = biological target: Doc1-122–His6 (DocSTm toxin) (Salmonella typhimurium); assay: as above; remark: listed apart in the source
# [6] = biological target: Doc1-122–His6 (DocSTm toxin) (Salmonella typhimurium); assay: SPR; Biacore S200; Doc-His6 captured on NTA chip; peptide as analyte, multi-cycle experiments up to 500 nM; 22 C; 10 mM HEPES, 500 mM NaCl, 50 uM EDTA, 0.005% TWEEN 20, pH 8.0; steady-state 1:1 fit
# [7] = biological target: Doc1-122–His6 (DocSTm toxin) (Salmonella typhimurium); assay: as above; remark: listed apart in the source
# [8] = biological target: Doc1-122–His6 (DocSTm toxin) (Salmonella typhimurium); assay: SPR; Biacore S200; Doc-His6 captured on a Series S NTA chip (200-400 RU); peptide as analyte, single-cycle kinetics, six concentrations (3-fold dilutions), 30 uL/min; 22 C; 10 mM HEPES, 500 mM NaCl, 50 uM EDTA, 0.005% TWEEN 20, pH 8.0; kinetic 1:1 fit; remark: listed apart in the source
# [9] = biological target: Doc1-122–His6 (DocSTm toxin) (Salmonella typhimurium); assay: as above; remark: listed apart in the source
# [10] = biological target: Doc1-122–His6 (DocSTm toxin) (Salmonella typhimurium); assay: as above; remark: listed apart in the source
# [11] = biological target: Doc1-122–His6 (DocSTm toxin) (Salmonella typhimurium); assay: as above; remark: listed apart in the source
# [12] = biological target: Doc1-122–His6 (DocSTm toxin) (Salmonella typhimurium); assay: as above; remark: listed apart in the source
# [13] = biological target: Doc1-122–His6 (DocSTm toxin) (Salmonella typhimurium); assay: as above; remark: listed apart in the source
# [14] = biological target: Doc1-122–His6 (DocSTm toxin) (Salmonella typhimurium); assay: as above; remark: listed apart in the source
# [15] = biological target: Doc1-122–His6 (DocSTm toxin) (Salmonella typhimurium); assay: as above; remark: listed apart in the source
# [16] = biological target: Doc1-122–His6 (DocSTm toxin) (Salmonella typhimurium); assay: as above; remark: listed apart in the source
# [17] = biological target: Doc toxin of Salmonella enterica serovar Typhimurium (DocSTm) (Salmonella enterica serovar Typhimurium); assay: SPR; DocSTm immobilised on a Series S NTA chip (150 nM, 200-400 RU); analytes in single-cycle kinetics, typically six concentrations, kinetic 1:1 fit; 22 °C; 10 mM HEPES, 500 mM NaCl, 50 μM EDTA, 0.005% TWEEN 20, pH 8.0
# [18] = biological target: Doc toxin of Salmonella enterica serovar Typhimurium (DocSTm) (Salmonella enterica serovar Typhimurium); assay: SPR; DocSTm immobilised on a Series S NTA chip; analytes in multicycle kinetics, kinetic and/or steady-state 1:1 fit (steady-state for peptide 14); 22 °C; 10 mM HEPES, 500 mM NaCl, 50 μM EDTA, 0.005% TWEEN 20, pH 8.0
# Doc = biological target: T1, Doc (Salmonella Typhimurium); assay: SPR
# T1 chain: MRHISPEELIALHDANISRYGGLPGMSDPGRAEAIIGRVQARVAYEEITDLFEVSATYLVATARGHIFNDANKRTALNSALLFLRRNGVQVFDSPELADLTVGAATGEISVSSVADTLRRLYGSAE
# [19] = biological target: Doc toxin of Salmonella enterica serovar Typhimurium (DocSTm) (Salmonella enterica serovar Typhimurium, UniProt A0A1C9CWN5 1-126); assay: SPR; DocSTm immobilised on a Series S NTA chip (150 nM, 200-400 RU); analytes in single-cycle kinetics, typically six concentrations, kinetic 1:1 fit; 22 °C; 10 mM HEPES, 500 mM NaCl, 50 μM EDTA, 0.005% TWEEN 20, pH 8.0; details: both partners purified
molecule,measurement,setting,value
peptide 2 (PhdSTm52-73-M52A),Kd,[1],0.052 nM
same,koff,[1],5.9e-05 s⁻¹
same,kon,[1],1.14e+06 M⁻¹ s⁻¹
same,Kd,[2],0.0523 nM and 0.0478 nM and 0.0551 nM
same,koff,[2],5.44e-05 s⁻¹ and 5.13e-05 s⁻¹ and 7.14e-05 s⁻¹
same,kon,[2],1.04e+06 M⁻¹ s⁻¹ and 1.07e+06 M⁻¹ s⁻¹ and 1.3e+06 M⁻¹ s⁻¹
peptide 3 (PhdSTm52-73-D53A),Kd,[3],0.0121 nM and 0.0166 nM and 0.00992 nM
same,koff,[3],6.65e-05 s⁻¹ and 8.25e-05 s⁻¹ and 4.72e-05 s⁻¹
same,kon,[3],5.48e+06 M⁻¹ s⁻¹ and 4.98e+06 M⁻¹ s⁻¹ and 4.76e+06 M⁻¹ s⁻¹
same,koff,[1],6.5e-05 s⁻¹
same,kon,[1],5.07e+06 M⁻¹ s⁻¹
peptide 5 (PhdSTm52-73-E55A),Kd,[1],0.049 nM
same,koff,[1],7.5e-05 s⁻¹
same,kon,[1],1.54e+06 M⁻¹ s⁻¹
same,Kd,[4],0.0489 nM and 0.0513 nM and 0.0469 nM
same,koff,[4],7.11e-05 s⁻¹ and 7.49e-05 s⁻¹ and 8.02e-05 s⁻¹
same,kon,[4],1.5e+06 1/(M s) (2×) and 1.7e+06 1/(M s)
peptide 6 (PhdSTm52-73-F56A),Kd,[5],1 nM and 0.919 nM and 0.745 nM
same,koff,[5],0.000717 s⁻¹ and 0.000702 s⁻¹ and 0.00111 s⁻¹
same,kon,[5],714000 M⁻¹ s⁻¹ and 764000 M⁻¹ s⁻¹ and 1.49e+06 M⁻¹ s⁻¹
same,koff,[1],0.000843 s⁻¹
same,kon,[1],989000 M⁻¹ s⁻¹
peptide 7 (PhdSTm52-73-I59A),Kd,[6],25.4 nM and 19.4 nM and 15.1 nM
same,Kd,[7],19.9 nM
peptide 8 (PhdSTm52-73-M60A),Kd,[8],0.67 nM and 0.611 nM and 0.485 nM
same,koff,[8],0.000966 s⁻¹ and 0.00091 s⁻¹ and 0.00181 s⁻¹
same,kon,[8],1.44e+06 M⁻¹ s⁻¹ and 1.49e+06 M⁻¹ s⁻¹ and 3.73e+06 M⁻¹ s⁻¹
same,Kd,[1],0.553 nM
same,koff,[1],0.00122 s⁻¹
same,kon,[1],2.22e+06 M⁻¹ s⁻¹
peptide 9 (PhdSTm52-73-V62A),Kd,[1],0.171 nM
same,koff,[1],0.000388 s⁻¹
same,kon,[1],2.27e+06 M⁻¹ s⁻¹
same,Kd,[9],0.183 nM and 0.239 nM and 0.132 nM
same,koff,[9],0.000329 s⁻¹ and 0.000394 s⁻¹ and 0.000442 s⁻¹
same,kon,[9],1.8e+06 M⁻¹ s⁻¹ and 1.65e+06 M⁻¹ s⁻¹ and 3.35e+06 M⁻¹ s⁻¹
peptide 10 (PhdSTm52-73-H63A),Kd,[6],12.2 nM and 13.1 nM and 40 nM
same,Kd,[7],21.8 nM
peptide 11 (PhdSTm52-73-G64A),Kd,[10],0.13 nM and 0.0743 nM and 0.0769 nM
same,koff,[10],1.42e-05 s⁻¹ and 2.28e-05 s⁻¹ and 2.23e-05 s⁻¹
same,kon,[10],1.08e+06 M⁻¹ s⁻¹ and 3.07e+06 M⁻¹ s⁻¹ and 2.9e+06 M⁻¹ s⁻¹
same,Kd,[1],0.084 nM
same,koff,[1],0.000197 s⁻¹
same,kon,[1],2.35e+06 M⁻¹ s⁻¹
peptide 13 (PhdSTm52-73-E66A),Kd,[1],0.042 nM
same,koff,[1],0.000112 s⁻¹
same,kon,[1],2.7e+06 M⁻¹ s⁻¹
same,Kd,[11],0.0475 nM and 0.0451 nM and 0.0352 nM
same,koff,[11],7.15e-05 s⁻¹ and 0.000147 s⁻¹ and 0.000118 s⁻¹
same,kon,[11],1.5e+06 M⁻¹ s⁻¹ and 3.26e+06 M⁻¹ s⁻¹ and 3.35e+06 M⁻¹ s⁻¹
peptide 14 (PhdSTm52-73-L67A),Kd,[6],25 nM and 23.9 nM and 15.4 nM
same,Kd,[7],21.4 nM
peptide 15 (PhdSTm52-73-R68A),Kd,[12],0.124 nM and 0.106 nM and 0.112 nM
same,koff,[12],0.000244 s⁻¹ and 0.000166 s⁻¹ and 0.000144 s⁻¹
same,kon,[12],1.95e+06 M⁻¹ s⁻¹ and 1.57e+06 M⁻¹ s⁻¹ and 1.29e+06 M⁻¹ s⁻¹
same,Kd,[1],0.115 nM
same,koff,[1],0.000185 s⁻¹
same,kon,[1],1.6e+06 M⁻¹ s⁻¹
peptide 16 (PhdSTm52-73-E69A),Kd,[13],0.0687 nM and 0.0703 nM and 0.0518 nM
same,koff,[13],0.000151 s⁻¹ and 0.000169 s⁻¹ and 8.97e-05 s⁻¹
same,kon,[13],2.2e+06 M⁻¹ s⁻¹ and 2.37e+06 M⁻¹ s⁻¹ and 1.73e+06 M⁻¹ s⁻¹
same,Kd,[1],0.065 nM
same,koff,[1],0.000136 s⁻¹
same,kon,[1],2.1e+06 M⁻¹ s⁻¹
peptide 17 (PhdSTm52-73-L70A),koff,[1],0.00597 s⁻¹
same,kon,[1],3.84e+06 M⁻¹ s⁻¹
same,Kd,[14],2.1 nM and 1.98 nM and 1.02 nM
same,koff,[14],0.00602 s⁻¹ and 0.00634 s⁻¹ and 0.00554 s⁻¹
same,kon,[14],2.87e+06 M⁻¹ s⁻¹ and 3.2e+06 M⁻¹ s⁻¹ and 5.44e+06 M⁻¹ s⁻¹
peptide 18 (PhdSTm52-73-D72A),Kd,[1],0.033 nM
same,koff,[1],8.4e-05 s⁻¹
same,kon,[1],2.51e+06 M⁻¹ s⁻¹
same,Kd,[15],0.0532 nM and 0.0189 nM and 0.0385 nM
same,koff,[15],7.43e-05 s⁻¹ and 5.67e-05 s⁻¹ and 0.00012 s⁻¹
same,kon,[15],1.4e+06 M⁻¹ s⁻¹ and 3.01e+06 M⁻¹ s⁻¹ and 3.12e+06 M⁻¹ s⁻¹
peptide 20 (PhdSTm52-71),Kd,[1],0.428 nM
same,koff,[1],0.000393 s⁻¹
same,kon,[1],917000 M⁻¹ s⁻¹
same,Kd,[16],0.447 nM and 0.414 nM and 0.424 nM
same,koff,[16],0.000413 s⁻¹ and 0.000387 s⁻¹ and 0.000378 s⁻¹
same,kon,[16],925000 M⁻¹ s⁻¹ and 934000 M⁻¹ s⁻¹ and 891000 M⁻¹ s⁻¹
peptide 22 (Phd 55-71),Kd,[17],0.347 nM
peptide 23 (Phd 56-70),Kd,[17],1.98 nM
Ac-WMDDEFAAAMAVHGNELRELADK [peptide 7 (Phd 52-73 I59A)],Kd,[18],20 nM
EFASLFDTLDSTNKELV [Phd peptide 22 55-71],Kd,Doc,0.347 nM
AALDAEFASLFDTLDSTNKELVNR [Phd peptide 1 neutralization domain],Kd,Doc,0.073 nM
Ac-WMDDEFAAIMAVAGNELRELADK [peptide 10 (Phd 52-73 H63A)],Kd,[18],20 nM
Ac-WMDDEFAAIMAVHGNEARELADK [peptide 14 (Phd 52-73 L67A)],Kd,[18],20 nM
Ac-EFAAIMAVHGNELRELADK-OH [peptide 21 (N-terminally truncated analogue of peptide 1)],fold loss in Kd against peptide 1,[19],~5 fold
FASLFDTLDSTNKEL [Phd peptide 23 56-70],Kd,Doc,1.98 nM
Ac-WMDDEFAAIMAVHGNELRELA-OH [peptide 20 (C-terminally truncated analogue of peptide 1)],fold loss in Kd against peptide 1,[19],~5 fold
